{"source": "patent US20210206838A1", "test_in_all_cases": "cell-based or functional assay", "key": {"[1]": {"biological_target": "envelope glycoprotein of HIV pseudovirus X1193_c1 (human immunodeficiency virus (HIV))"}, "[2]": {"biological_target": "HIV pseudovirus 0260.v5.c36 (envelope glycoprotein) (HIV)"}, "[3]": {"biological_target": "HIV pseudovirus CNE52 (envelope glycoprotein) (HIV)"}, "[4]": {"biological_target": "HIV pseudovirus SC05.8C11.2344 (envelope glycoprotein) (HIV)"}, "[5]": {"biological_target": "envelope glycoprotein of HIV pseudovirus 6952.v1.c20 (human immunodeficiency virus (HIV))"}, "[6]": {"biological_target": "HIV pseudovirus SC422661.8 (envelope glycoprotein) (human immunodeficiency virus (HIV))"}, "[7]": {"biological_target": "HIV pseudovirus Ce1176_A3 (envelope glycoprotein) (HIV)"}, "[8]": {"biological_target": "envelope glycoprotein of HIV pseudovirus AC10.0.29 (human immunodeficiency virus (HIV))"}, "[9]": {"biological_target": "envelope glycoprotein of HIV pseudovirus 263-8 (human immunodeficiency virus (HIV))"}, "[10]": {"biological_target": "HIV pseudovirus RHPA4259.7 (envelope glycoprotein) (HIV)"}, "[11]": {"biological_target": "HIV pseudovirus Du172.17 (envelope glycoprotein) (human immunodeficiency virus (HIV))"}, "[12]": {"biological_target": "HIV pseudovirus RHPA4259.7 (envelope glycoprotein) (human immunodeficiency virus (HIV))"}, "[13]": {"biological_target": "HIV pseudovirus CNE52 (envelope glycoprotein) (human immunodeficiency virus (HIV))"}, "[14]": {"biological_target": "HIV pseudovirus BB1012-11.TC21 (envelope glycoprotein) (human immunodeficiency virus (HIV))"}, "[15]": {"biological_target": "HIV pseudovirus Du172.17 (envelope glycoprotein) (HIV)"}, "[16]": {"biological_target": "HIV pseudovirus 0260.v5.c36 (envelope glycoprotein) (human immunodeficiency virus (HIV))"}, "[17]": {"biological_target": "envelope glycoprotein of HIV pseudovirus Ce1176_A3 (human immunodeficiency virus (HIV))"}, "[18]": {"biological_target": "envelope glycoprotein of HIV pseudovirus SC05.8C11.2344 (human immunodeficiency virus (HIV))"}}}
{"substance": "Control (antibody)", "values": [{"measurement": "IC50", "setting": "[1]", "result": 0.019, "unit": "µg/mL"}, {"measurement": "IC80", "setting": "[1]", "result": 0.065, "unit": "µg/mL"}, {"measurement": "neutralization IC50", "setting": "[2]", "result": 0.051, "unit": "µg/mL"}, {"measurement": "neutralization IC80", "setting": "[2]", "result": 0.143, "unit": "µg/mL"}, {"measurement": "neutralization IC50", "setting": "[3]", "result": 2.92, "unit": "µg/mL"}, {"measurement": "neutralization IC80", "setting": "[3]", "result": 17.8, "unit": "µg/mL"}, {"measurement": "neutralization IC50", "setting": "[4]", "result": 0.019, "unit": "µg/mL"}, {"measurement": "neutralization IC80", "setting": "[4]", "result": 0.071, "unit": "µg/mL"}, {"measurement": "IC50", "setting": "[5]", "result": 0.053, "unit": "µg/mL"}, {"measurement": "IC80", "setting": "[5]", "result": 0.373, "unit": "µg/mL"}, {"measurement": "neutralization IC50", "setting": "[6]", "result": 0.028, "unit": "µg/mL"}, {"measurement": "neutralization IC80", "setting": "[6]", "result": 0.126, "unit": "µg/mL"}, {"measurement": "neutralization IC50", "setting": "[7]", "result": 0.02, "unit": "µg/mL"}, {"measurement": "neutralization IC80", "setting": "[7]", "result": 0.076, "unit": "µg/mL"}, {"measurement": "IC50", "setting": "[8]", "result": 0.033, "unit": "µg/mL"}, {"measurement": "IC80", "setting": "[8]", "result": 0.117, "unit": "µg/mL"}, {"measurement": "IC50", "setting": "[9]", "result": 1.12, "unit": "µg/mL"}, {"measurement": "IC80", "setting": "[9]", "result": 9.37, "unit": "µg/mL"}, {"measurement": "neutralization IC50", "setting": "[10]", "result": 0.018, "unit": "µg/mL"}, {"measurement": "neutralization IC80", "setting": "[10]", "result": 0.047, "unit": "µg/mL"}, {"measurement": "neutralization IC50", "setting": "[11]", "result": 0.013, "unit": "µg/mL"}, {"measurement": "neutralization IC80", "setting": "[11]", "result": 0.198, "unit": "µg/mL"}, {"measurement": "neutralization IC50", "setting": "[12]", "result": 0.011, "unit": "µg/mL"}, {"measurement": "neutralization IC80", "setting": "[12]", "result": 0.033, "unit": "µg/mL"}, {"measurement": "neutralization IC50", "setting": "[13]", "result": 0.904, "unit": "µg/mL"}, {"measurement": "neutralization IC80", "setting": "[13]", "result": 16.8, "unit": "µg/mL"}, {"measurement": "neutralization IC50", "setting": "[14]", "result": 0.005, "unit": "µg/mL"}, {"measurement": "neutralization IC80", "setting": "[14]", "result": 0.021, "unit": "µg/mL"}, {"measurement": "neutralization IC50", "setting": "[15]", "result": 0.051, "unit": "µg/mL"}, {"measurement": "neutralization IC80", "setting": "[15]", "result": 0.672, "unit": "µg/mL"}, {"measurement": "neutralization IC50", "setting": "[16]", "result": 0.027, "unit": "µg/mL"}, {"measurement": "neutralization IC80", "setting": "[16]", "result": 0.105, "unit": "µg/mL"}, {"measurement": "IC50", "setting": "[17]", "result": 0.018, "unit": "µg/mL"}, {"measurement": "IC80", "setting": "[17]", "result": 0.049, "unit": "µg/mL"}, {"measurement": "IC50", "setting": "[18]", "result": 0.018, "unit": "µg/mL"}, {"measurement": "IC80", "setting": "[18]", "result": 0.084, "unit": "µg/mL"}]}
